# Results from US20230331820A1 (GlaxoSmithKline, published 2023).
# Read-outs that look alike come from different tables or passages of the source.
# B1: mAb clone 12, 13 (antibody, V domains shown)
# VH: QVQLKESGPGLVAPSQSLSITCTVSGFSLTSYGVHWVRQPPGKGLEWLGVIWAGGSTNYNSALMSRLSISKDNSKSQVFLKMNSLQTDDTAMYFCARGGITSLHNYVMDYWGQGTSVTVSS
# VL: DIVLTQSPASLAVSLGQRATISCRASESVEYYGTSLMQWYQQKPGQPPKLLIYAASNVESGVPARFSGSGSGTHFSLNIHPVEEDDIAMYFCQQSRKVPSTFGGGTKLEIK
# notes: also called mAb 12; mAb12
# B2: mAb clone 48 (antibody, V domains shown)
# VH: QVTLKESGPGILQPSQTLSLTCSFSGFSLSTSGMGVSWIRQPSGKGLEWLAHIYWDDDKRYNPSLKSRLTISKDTSSNQVFLKITSVDTADTATYYCARRGFYYRYDGGRRYYYAMDYWGQGTSVTVSS
# VL: DILLTQSPAILSVSPGERVSFSCRASQSIGTSIHWYQQGTNGSPRLLIKFASESISGIPSRFSGSGSGTDFTLSINSVESEDIADYYCQQSNSWPLTFGAGTKLELK
# B3: mAb clone 37 (antibody, V domains shown)
# VH: EVQLQQSGPELVKPGASVKISCKASGYTFTDYNMHWVKQSHGKSLEWIGYIYPYNGGTGYNQKFKTKATLTVDNSSSTAYMELRSLTSEDSAVYYCAIPGYYYAMDYWGQGTSVTVSS
# VL: DIVLTQSPASLAVSLGQRATISCRASKSVSTSGYSYMHWYQQKPGQPPKLLIYLASNLESGVPARFSGSGSGTDFTLNIHPVEEEDASTYYCHHSRELPRTFGGGTKLEIK
# B4: mAb clone 41 (antibody, V domains shown)
# VH: QVQLQQSGAELVRPGTSVKVSCKASGYAFTNYLIEWVKQRPGQGLEWIGVINPGSGGTNYNEKFKGKATLTADKSSSTAYMQLSSLTSDDSAVYFCARSGLRRDYYAMDYWGQGTSVTVSS
# VL: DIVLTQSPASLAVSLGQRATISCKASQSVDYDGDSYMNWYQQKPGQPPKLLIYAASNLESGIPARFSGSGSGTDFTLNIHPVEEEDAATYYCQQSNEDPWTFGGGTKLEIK
# B5: mAb clone 40 (antibody, V domains shown)
# VH: QIQLVQSGPELKKPGETVKISCKASGYTFTNYGMNWVKQAPGKGLKWMGWINTYTGEPTYADDFKGRFAFSLETSASTAYLQINNLKNEDTATYFCARSLYGYDEGYFDVWGAGTTVTVSS
# VL: DIQMTQSPASLSASVGETVTITCRASGNIHNYLAWYQQKQGKSPQLLVYNAKTLADGVPSRFSGSGSGTQYSLKINSLQPEDFGSYYCQHFWSTPYTFGGGTKLEIK
# Legend:
# [1] = target: gEgI mutant (338): HSV2 gEgI mutant heterodimer comprising gE and gI ectodomains with insertion of a (HSV2, UniProt P89475 21-416; P06764 21-256); experiment: ELISA, supernatant
# [2] = target: T1, gI WT: HSV2 gI wildtype ectodomain (HSV2, UniProt P06764 21-256); experiment: ELISA, supernatant
# [3] = target: T2, gEgI mutant (P317R): HSV2 gEgI mutant heterodimer comprising gE and gI ectodomains with mutation P317R in gE (HSV2, UniProt P89475 21-416; P06764 21-256); experiment: SPR single-cycle kinetics, mAb captured on RAM; gEgI mutant batch 1
# [4] = target: T2, gEgI mutant (P317R): HSV2 gEgI mutant …; experiment: SPR single-cycle kinetics, mAb captured on RAM; gEgI mutant batch 2
# [5] = target: T3, gEgI WT: HSV2 gEgI heterodimer comprising gE and gI wildtype ectodomains (HSV2, UniProt P89475 21-416; P06764 21-256); experiment: Biacore SPR, gEgI CHO BMP1181 at 10 µg/ml for 180 s over the mAb
# [6] = target: T3, gEgI WT: HSV2 gEgI heterodimer …; experiment: Biacore SPR, gEgI HEK BMP1063 at 10 µg/ml for 180 s over the mAb
# [7] = target: T3, gEgI WT: HSV2 gEgI heterodimer …; experiment: SPR single-cycle kinetics, mAb captured on RAM, gEgI as analyte, 1:1 model
# [8] = target: T1, gI WT: HSV2 gI wildtype ectodomain; experiment: ELISA, supernatant; remark: listed apart in the source
# [9] = target: gEgI mutant (R320D): HSV2 gEgI mutant heterodimer comprising gE and gI ectodomains with mutation R320D in gE (HSV2, UniProt P89475 21-416; P06764 21-256); experiment: ELISA, supernatant
# [10] = target: gEgI mutant (P319D): HSV2 gEgI mutant heterodimer comprising gE and gI ectodomains with mutation P319D in gE (HSV2, UniProt P89475 21-416; P06764 21-256); experiment: ELISA, supernatant
# [11] = target: T2, gEgI mutant (P317R): HSV2 gEgI mutant …; experiment: ELISA, supernatant
# [12] = target: T3, gEgI WT: HSV2 gEgI heterodimer …; experiment: ELISA, supernatant
# [13] = target: T4, gE WT: HSV2 gE wildtype ectodomain (HSV2, UniProt P89475 21-416); experiment: ELISA, supernatant
# [14] = target: T4, gE WT: HSV2 gE wildtype ectodomain; experiment: ELISA, supernatant; remark: listed apart in the source
# [15] = target: T3, gEgI WT: HSV2 gEgI heterodimer …; experiment: SPR binning; gEgI captured by mAb 5
# [16] = target: T3, gEgI WT: HSV2 gEgI heterodimer …; experiment: SPR binning; gEgI captured by mAb 9
# [17] = target: T3, gEgI WT: HSV2 gEgI heterodimer …; experiment: SPR binning; gEgI captured by mAb 10
# [18] = target: T3, gEgI WT: HSV2 gEgI heterodimer …; experiment: SPR binning; gEgI captured by mAb 15
# [19] = target: T3, gEgI WT: HSV2 gEgI heterodimer …; experiment: SPR binning; gEgI captured by mAb 17
# [20] = target: T3, gEgI WT: HSV2 gEgI heterodimer …; experiment: SPR binning; gEgI captured by mAb 19
# [21] = target: T3, gEgI WT: HSV2 gEgI heterodimer …; experiment: SPR binning; gEgI captured by mAb 20
# [22] = target: T3, gEgI WT: HSV2 gEgI heterodimer …; experiment: SPR binning; gEgI captured by mAb 24
# [23] = target: T3, gEgI WT: HSV2 gEgI heterodimer …; experiment: SPR binning; gEgI captured by mAb 34
# [24] = target: T3, gEgI WT: HSV2 gEgI heterodimer …; experiment: SPR binning; gEgI captured by mAb 39
# [25] = target: T3, gEgI WT: HSV2 gEgI heterodimer …; experiment: SPR binning; gEgI captured by mAb 40
# [26] = target: T3, gEgI WT: HSV2 gEgI heterodimer …; experiment: SPR binning; gEgI captured by mAb 42
# [27] = target: T3, gEgI WT: HSV2 gEgI heterodimer …; experiment: SPR binning; gEgI captured by mAb 45
binder,measurement,setting,value
B1,binding result,[1],binds
same,binding result,[2],no binding
same,Kd,[3],7.68 nM
same,koff,[3],0.00325 s⁻¹
same,kon,[3],422000 M⁻¹ s⁻¹
same,Kd,[4],11.5 nM
same,koff,[4],0.00324 s⁻¹
same,kon,[4],280000 M⁻¹ s⁻¹
same,RU Ag/250 RU mAbs,[5],112 RU Ag/250 RU mAbs
same,RU Ag/250 RU mAbs,[6],108 RU Ag/250 RU mAbs
same,Kd,[7],6.89 nM
same,koff,[7],0.00197 s⁻¹
same,kon,[7],285000 M⁻¹ s⁻¹
B2,binding result,[8],no binding
same,binding result,[9],binds
same,binding result,[1],binds
same,binding result,[10],binds
same,binding result,[11],binds
same,binding result,[12],binds
same,binding result,[13],binds
B3,binding result,[9],binds
same,binding result,[1],binds
same,binding result,[10],binds
same,binding result,[11],binds
same,binding result,[12],binds
same,binding result,[13],binds
same,binding result,[2],no binding
B4,binding result,[14],no binding
same,binding result,[9],binds
same,binding result,[1],binds
same,binding result,[10],binds
same,binding result,[11],binds
same,binding result,[12],binds
same,binding result,[2],binds
B5,binding result,[1],binds
same,binding result,[13],no binding
same,binding result,[2],no binding
same,RU,[15],9 RU
same,RU,[16],8.8 RU
same,RU,[17],9.8 RU
same,RU,[18],-0.4 RU
same,RU,[19],8.8 RU
same,RU,[20],6.4 RU
same,RU,[21],10 RU
same,RU,[22],7.6 RU
same,RU,[23],5.2 RU
same,RU,[24],9 RU
same,RU,[25],2.6 RU
same,RU,[26],7.4 RU
same,RU,[27],7.3 RU
